Drawing on paper PMC6893557 (2019), this text covers Kd for one molecule.

The target of the test is pYEEI. As to the kind of experiment: SPR.

B1: Hck SH2 (protein)
chain: WFFKGISRKDAERQLLAPGNMLGSFMIRDSETTKGSYSLSVRDYDPRQGDTVKHYKIRTLDNGGFYISPRSTFSTLQELVDHYKKGNDGLCQKLSVPC
With B1, binding was characterised by a dissociation constant (Kd) of 42 µM.
